Laboratory results: paper PMC5662698 (2017)
No end group written: not given here.

B1: DnaJ (natural protein)
chain: MAKQDYYEILGVSKTAEEREIRKAYKRLAMKYHPDRNQGDKEAEAKFKEIKEAYEVLTDSQKRAAYDQYGHAAFEQGGMGGGGFGGGADFSDIFGDVFGDIFGGGRGRQRAARGADLRYNMELTLEEAVRGVTKEIRIPTLEECDVCHGSGAKPGTQPQTCPTCHGSGQVQMRQGFFAVQQTCPHCQGRGTLIKDPCNKCHGHGRVERSKTLSVKIPAGVDTGDRIRLAGEGEAGEHGAPAGDLYVQVQVKQHPIFEREGNNLYCEVPINFAMAALGGEIEVPTLDGRVKLKVPGETQTGKLFRMRGKGVKSVRGGAQGDLLCRVVVETPVGLNERQKQLLQELQESFGGPTGEHNSPRSKSFFDGVKKFFDDLTR

What was measured:
[1] = target: T1, DnaK-C15A/M404C/T437C (Escherichia coli (strain K12)); assay: FP
T1 chain: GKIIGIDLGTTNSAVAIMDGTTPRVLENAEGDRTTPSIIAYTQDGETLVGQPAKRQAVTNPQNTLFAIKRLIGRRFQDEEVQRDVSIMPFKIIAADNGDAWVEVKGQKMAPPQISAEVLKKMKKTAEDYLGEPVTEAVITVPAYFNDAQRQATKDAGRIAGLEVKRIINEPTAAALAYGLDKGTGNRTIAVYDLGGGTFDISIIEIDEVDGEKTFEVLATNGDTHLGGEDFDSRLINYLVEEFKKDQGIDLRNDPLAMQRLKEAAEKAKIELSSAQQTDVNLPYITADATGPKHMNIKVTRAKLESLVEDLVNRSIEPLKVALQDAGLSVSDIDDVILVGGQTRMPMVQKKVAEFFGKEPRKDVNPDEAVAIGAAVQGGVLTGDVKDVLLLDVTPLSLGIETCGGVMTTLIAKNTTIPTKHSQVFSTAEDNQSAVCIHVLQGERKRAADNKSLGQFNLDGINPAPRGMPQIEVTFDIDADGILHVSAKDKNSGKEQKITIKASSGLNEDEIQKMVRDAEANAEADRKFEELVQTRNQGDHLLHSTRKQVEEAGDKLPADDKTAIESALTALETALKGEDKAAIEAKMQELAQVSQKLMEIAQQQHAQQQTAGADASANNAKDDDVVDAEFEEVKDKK

[2] = target: human BiP, wild type (human, UniProt P11021 19-654); assay: FP
[3] = target: BiP EPR construct BiP-C41A/C420A/V429C (human, UniProt P11021 19-654, C41A | C420A | V429C); assay: FP
[4] = target: BiP FRET construct BiP-C41A/C420A/V429C/T462C (human, UniProt P11021 19-654, C41A | C420A | V429C | T462C); assay: FP
[5] = target: BiP-C41A/C420A (Homo sapiens); assay: FP
[6] = target: TMR-labeled DnaK (DnaK FRET construct C15A/M404C/T437C labelled with tetramethylrhodamine) (E. coli, UniProt P0A6Y8 1-638, C15A | M404C | T437C, tetramethylrhodamine (TMR, from 5-IATR) on both introduced cysteines (M404C, T437C)); assay: ATP

BiP EPR construct BiP-C41A/C420A/V429C, sequence (P11021 19-654 C41A/C420A/V429C): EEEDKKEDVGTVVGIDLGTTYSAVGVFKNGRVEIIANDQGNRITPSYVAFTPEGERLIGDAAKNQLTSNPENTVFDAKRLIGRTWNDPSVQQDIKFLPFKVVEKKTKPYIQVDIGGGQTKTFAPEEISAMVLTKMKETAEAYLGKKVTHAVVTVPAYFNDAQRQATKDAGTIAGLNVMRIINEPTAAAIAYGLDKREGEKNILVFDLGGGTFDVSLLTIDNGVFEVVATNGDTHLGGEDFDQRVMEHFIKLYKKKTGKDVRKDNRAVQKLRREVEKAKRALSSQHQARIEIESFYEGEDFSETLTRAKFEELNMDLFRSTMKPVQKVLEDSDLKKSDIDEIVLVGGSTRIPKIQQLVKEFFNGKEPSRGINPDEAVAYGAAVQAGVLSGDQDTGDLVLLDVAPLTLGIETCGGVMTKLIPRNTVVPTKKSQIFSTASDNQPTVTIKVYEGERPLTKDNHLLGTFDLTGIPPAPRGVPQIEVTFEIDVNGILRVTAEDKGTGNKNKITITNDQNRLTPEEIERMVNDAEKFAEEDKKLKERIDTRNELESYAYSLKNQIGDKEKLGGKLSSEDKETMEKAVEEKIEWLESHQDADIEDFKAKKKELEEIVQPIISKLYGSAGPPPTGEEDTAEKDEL
BiP FRET construct BiP-C41A/C420A/V429C/T462C, sequence (P11021 19-654 C41A/C420A/V429C/T462C): as the sequence (P11021 19-654 C41A/C420A/V429C) above, with T444C counted along it
human BiP, wild type, sequence (P11021 19-654): as the sequence (P11021 19-654 C41A/C420A/V429C) above, with A23C, A402C, C411V counted along it
BiP-C41A/C420A (Homo sapiens), sequence (chain, as listed by the source C41A C420A): as the sequence (P11021 19-654 C41A/C420A/V429C) above, with C411V counted along it

| Binder | Kd [1] | Kd [2] | Kd [3] | Kd [4] | Kd [5] | Kd [6] |
| --- | --- | --- | --- | --- | --- | --- |
| fluorescein-NRLLLTG [NR peptide (NRLLLTG), fluorescein-labelled] | 2120 nM | 910 nM | 820 nM | 610 nM | 850 nM | – |
| B1 | – | – | – | – | – | 182 nM |
